From publication PMC8262884

Assays:
[1] = biological target: native phosphoenolpyruvate carboxykinase (PEPCK) (Trypanosoma brucei (endogenous in EATRO1125.T7T procyclic cells))
[2] = biological target: TY-tagged phosphoenolpyruvate carboxykinase (TY-PEPCK) (Trypanosoma brucei); assay: proximity ligation; Duolink In Situ Red mouse/rabbit kit on PFA-fixed, Triton X-100-permeabilized Δpepck/TY-PEPCK/UGP-MYC.i procyclic cells; rabbit anti-MYC and mouse anti-TY1; cell lines with only one tagged protein as negative controls

glycosomal import of the tagged UGP (Western blot of glycosomal and cytosolic fractions), against native UGP in parental cells [1] [fold] | percent of PLA-positive cells [2] [%] | Binder
9 |  | TY-UGP_(1-485) (enzyme) MPLNPPSAFSGAALACLEKMQASGVEEKCIHIFLIQHALVRKGETGYIPEKSISPVESLPFLQGIETKGENTALLRQAVVLKLNGGLGTGMGLNGPKSLLQVKNGQTFLDFTALQLEHFRQVRNCNVPFMLMNSFSTSGETKNFLRKYPTLYEVFDSDIELMQNRVPKIRQDNFFPVTYEADPTCEWVPPGHGDVYTVLYSSGKLDYLLGKGYRYMFISNGDNLGATLDVRLLDYMHEKQLGFLMEVCRRTESDKKGGHLAYKDVIDETTGQTRRRFVLRESAQCPKEDEDSFQNIAKHCFFNTNNIWINLMELKKMMDEQLGVLRLPVMRNPKTVNPQDSQSTKVYQLEVAMGAAISLFDRSEAVVVPRERFAPVKTCSDLLALRSDAYQVTEDQRLVLCEERNGKPPAIDLDGEHYKMIDGFEKLVKGGVPSLRQCTSLTVRGLVEFGADVSVRGNVVIKNLKEEPLIIGSGRVLDNEVVVVE
 | 62 | MYC-tagged UDP-glucose pyrophosphorylase (UGP-MYC) (enzyme) MPLNPPSAFSGAALACLEKMQASGVEEKCIHIFLIQHALVRKGETGYIPEKSISPVESLPFLQGIETKGENTALLRQAVVLKLNGGLGTGMGLNGPKSLLQVKNGQTFLDFTALQLEHFRQVRNCNVPFMLMNSFSTSGETKNFLRKYPTLYEVFDSDIELMQNRVPKIRQDNFFPVTYEADPTCEWVPPGHGDVYTVLYSSGKLDYLLGKGYRYMFISNGDNLGATLDVRLLDYMHEKQLGFLMEVCRRTESDKKGGHLAYKDVIDETTGQTRRRFVLRESAQCPKEDEDSFQNIAKHCFFNTNNIWINLMELKKMMDEQLGVLRLPVMRNPKTVNPQDSQSTKVYQLEVAMGAAISLFDRSEAVVVPRERFAPVKTCSDLLALRSDAYQVTEDQRLVLCEERNGKPPAIDLDGEHYKMIDGFEKLVKGGVPSLRQCTSLTVRGLVEFGADVSVRGNVVIKNLKEEPLIIGSGRVLDNEVVVVE
